Laboratory results: article PMC5730761, “NS3 from Hepatitis C Virus Strain JFH-1 Is an Unusually Robust Helicase That Is Primed To Bind and Unwind Viral RNA”

How the values were obtained:
JFH-1 NS3 [1] = molecular target: T1, JFH-1 NS3 (Hepatitis C virus genotype 2a strain …, UniProt Q99IB8 1031-1661); test: filter binding; 3 mM Mg2+; legend names NS3-4A; 25 mM MOPS-NH4+ pH 6.5, 3 mM MgCl2, 30 mM NaCl, 1% glycerol, 2 mM DTT, 0.1% Triton X-100; filter binding 37 C, 0.5 nM RNA, Hill fit; stopped flow 25 C; conditions: protein: recombinant; tags: His6-SUMO removed (native N terminus); label: 5'-32P
gt1b NS3 [2] = molecular target: T2, gt1b NS3 (Hepatitis C virus genotype 1b strain N, UniProt Q9WPH5 1028-1658); test: as above; conditions: protein: recombinant; tags: His6-SUMO removed (native N terminus); label: 5'-32P
gt1b NS3 [3] = molecular target: T2, gt1b NS3; test: filter binding; 3 mM Mg2+; (stopped-flow kon 9.9 uM-1 s-1, Fig 2B); 25 mM MOPS-NH4+ pH 6.5, 3 mM MgCl2, 30 mM NaCl, 1% glycerol, 2 mM DTT, 0.1% Triton X-100; filter binding 37 C, 0.5 nM RNA, Hill fit; stopped flow 25 C; conditions: protein: recombinant; tags: His6-SUMO removed (native N terminus); 5' Cy3 top strand via C3 amino linker (stopped flow); 3' overhang 12 nt on strand 1
JFH-1 NS3 [4] = molecular target: T1, JFH-1 NS3; test: filter binding; 3 mM Mg2+; (stopped-flow kon 69 uM-1 s-1, Fig 2B); 25 mM MOPS-NH4+ pH 6.5, 3 mM MgCl2, 30 mM NaCl, 1% glycerol, 2 mM DTT, 0.1% Triton X-100; filter binding 37 C, 0.5 nM RNA, Hill fit; stopped flow 25 C; conditions: protein: recombinant; tags: His6-SUMO removed (native N terminus); 5' Cy3 top strand via C3 amino linker (stopped flow); 3' overhang 12 nt on strand 1
gt1b NS3 [5] = molecular target: T2, gt1b NS3; test: filter binding; 3 mM Mg2+; (stopped-flow kon 13 uM-1 s-1, Fig 2A); 25 mM MOPS-NH4+ pH 6.5, 3 mM MgCl2, 30 mM NaCl, 1% glycerol, 2 mM DTT, 0.1% Triton X-100; filter binding 37 C, 0.5 nM RNA, Hill fit; stopped flow 25 C; conditions: protein: recombinant; tags: His6-SUMO removed (native N terminus); 5' Cy3 top strand via C3 amino linker (stopped flow); 3' overhang 18 nt on strand 1
JFH-1 NS3 [6] = molecular target: T1, JFH-1 NS3; test: filter binding; 3 mM Mg2+; (stopped-flow kon 59 uM-1 s-1, Fig 2A); 25 mM MOPS-NH4+ pH 6.5, 3 mM MgCl2, 30 mM NaCl, 1% glycerol, 2 mM DTT, 0.1% Triton X-100; filter binding 37 C, 0.5 nM RNA, Hill fit; stopped flow 25 C; conditions: protein: recombinant; tags: His6-SUMO removed (native N terminus); 5' Cy3 top strand via C3 amino linker (stopped flow); 3' overhang 18 nt on strand 1
gt1b NS3 [7] = molecular target: T2, gt1b NS3; test: filter binding; 3 mM Mg2+; (stopped-flow kon 3.5 uM-1 s-1, Fig 2C); 25 mM MOPS-NH4+ pH 6.5, 3 mM MgCl2, 30 mM NaCl, 1% glycerol, 2 mM DTT, 0.1% Triton X-100; filter binding 37 C, 0.5 nM RNA, Hill fit; stopped flow 25 C; conditions: protein: recombinant; tags: His6-SUMO removed (native N terminus); 5' Cy3 top strand via C3 amino linker (stopped flow); 3' overhang 6 nt on strand 1
JFH-1 NS3 [8] = molecular target: T1, JFH-1 NS3; test: filter binding; 3 mM Mg2+; (stopped-flow kon 15 uM-1 s-1, Fig 2C); 25 mM MOPS-NH4+ pH 6.5, 3 mM MgCl2, 30 mM NaCl, 1% glycerol, 2 mM DTT, 0.1% Triton X-100; filter binding 37 C, 0.5 nM RNA, Hill fit; stopped flow 25 C; conditions: protein: recombinant; tags: His6-SUMO removed (native N terminus); 5' Cy3 top strand via C3 amino linker (stopped flow); 3' overhang 6 nt on strand 1

B1: ssT34 (ssRNA)
RNA: CUGUGGCAUGUCCUAGCGUCGUAUCGAUCUGGUC
Kd (JFH-1 NS3 [1]): 8.36 ± 0.29 nM | Kd (gt1b NS3 [2]): 7.56 ± 0.33 nM

B2: 12bp/12-OH (dsRNA)
RNA 1: CGGCAGCGAGGCAGAGGAGCAGCA
RNA 2: GCCUCGCUGCCG
Kd (gt1b NS3 [3]): 15.7 ± 0.61 nM | Kd (JFH-1 NS3 [4]): 7.69 ± 0.21 nM

B3: 12bp/18-OH (dsRNA)
RNA 1: CGGCAGCGAGGCAGAGGAGCAGAGGGAGCA
RNA 2: GCCUCGCUGCCG
Kd (gt1b NS3 [5]): 7.25 ± 0.17 nM | Kd (JFH-1 NS3 [6]): 6.56 ± 0.23 nM

B4: 12bp/6-OH (dsRNA)
RNA 1: CGGCAGCGAGGCAGGACA
RNA 2: GCCUCGCUGCCG
Kd (gt1b NS3 [7]): 60.4 ± 4.38 nM | Kd (JFH-1 NS3 [8]): 14.9 ± 0.52 nM
